This note sets out measurements from patent publication US20210277411.

Holding throughout (assay): cell_activity
The subject of series [1] is TALE nuclease pair BnFAD2_T03 (synthetic construct). The following applies: Westar protoplasts.
For series [2], the system named is TALE nuclease pair BnFAD2_T01 (synthetic construct). The following applies: Westar protoplasts.
For series [3], the system named is TALE nuclease pair BnFAD2_T02 (synthetic construct). The following applies: Westar protoplasts.
Series [4] relates to TALE nuclease pair BnFAD2_T07 (synthetic construct). To be noted: Westar protoplasts.
The subject of series [5] is TALE nuclease pair BnFAD2_T05 (synthetic construct).

Take “TGCGAGACACCGCCCTTCACTGTCGGAGAACTCAAGAAAGCAATCCCA (double strand) [BnFAD2_T03 site in BnaA/BnaC.FAD2.a (SEQ ID NO:10)]”: the activity (% mutagenesis) in series [1] (BnaA.FAD2.a) is 9; in series [1] (BnaC.FAD2.a) it was 9.8. Sequence “TGCGAGACACCACCCTTCACTCTCGGAGACCTCAAGAAAGCAATCCCA (double strand) [BnFAD2_T03 site in BnaC.FAD2.b (SEQ ID NO:19)]” gave an activity (% mutagenesis) in series [1] (BnaC.FAD2.b) of 10.

For “TCCCCCACCCTCTCCCTTACCTCGCCTGGCCCCTCTACTGGGCCTGCCA (double strand) [BnFAD2_T01 site in BnaC.FAD2.b (SEQ ID NO:15)]”, in series [2] (BnaC.FAD2.b, mismatched site), the activity (% mutagenesis) was found to be 1.9. “TCGTCCCTTACTTCTCCTGGAAGTACGGCCATCGACGCCACCATTCCAA (double strand) [BnFAD2_T02 site in BnaC.FAD2.b (SEQ ID NO:17)]” had an activity (% mutagenesis) in series [3] (BnaC.FAD2.b) of 5.5. In the case of “TCTGGGTCATAGCCCACGAGTGCGGCCACCACGCCTTCAGCGACTACCA (double strand)”, the activity (% mutagenesis) in series [4] (BnaA.FAD2.a) came out at 2.2; in series [4] (BnaC.FAD2.a) it was 2.8; in series [5] (BnaA.FAD2.a, Westar protoplasts), 3.8; in series [5] (BnaC.FAD2.a, Westar protoplasts), 4.4. For “TCTGGGTCATCGCCCACGAATGCGGCCACCACGCCTTCAGCGACCACCA (double strand) [BnFAD2_T05/T07 site in BnaC.FAD2.b (SEQ ID NO:14)]”, the activity (% mutagenesis) in series [4] (BnaC.FAD2.b) came to 2.6; in series [5] (BnaC.FAD2.b, printed as 23 but 1549/67387 reads = 2.3), 2.3. With “TCGTCCCTTACTTCTCCTGGAAGTACAGTCATCGACGCCACCATTCCAA (double strand) [BnFAD2_T02 site in BnaA/BnaC.FAD2.a (SEQ ID NO:9)]”, the results for the activity (% mutagenesis) in series [3] (BnaA.FAD2.a) and in series [3] (BnaC.FAD2.a) were 9.7 and 10.3, respectively. Regarding “TCCCTCACCCTCTCTCCTACTTCGCCTGGCCTCTCTACTGGGCCTGCCA (double strand) [BnFAD2_T01 site in BnaA/BnaC.FAD2.a (SEQ ID NO:8)]”, the activity (% mutagenesis) amounted to 8.3 in series [2] (BnaA.FAD2.a, 25 C, 2 days, half-sites not demarcated) and 10 in series [2] (BnaC.FAD2.a, 25 C, 2 days).
